This passage reports self-cleavage results from the RNAGym collection of RNA variant scans (doi:10.7554/elife.80360).

B1: CPEB3 Ribozyme (parent)
chain: GGGGGCCACAGCAGAAGCGUUCACGUCGCGGCCCCUGUCAGAUUCUGGUGAAUCUGCGAAUUCUGCUGU

Variants of B1 are the subject of the series. Put plainly: self-cleavage, relative activity (ratio to wild type); higher = more cleavage; co-transcriptional.
For C29U C34G, the self-cleavage was determined as 0.276.
Then C29U C34A, with 0.299; and C29G C54A, with 0.259.
Then C29G U44C, with 0.314; and C29G U44A, with 0.338.
Then G30C A42G, with 0.604; and G30C A42C, with 0.441.
As for G30A G47C, the self-cleavage came to 0.93.
Then G30A A42G, with 0.817; and C29U U69A, with 0.619.
Then C29U U69G, with 0.737; and C29U U69C, with 0.834; and C29U C32U, with 0.645.
Then C29U C32G, with 0.165; and C29A G58A, with 0.435.
On to C29U G31A, for which the self-cleavage was found to be 0.315.
Then C29U G31U, with 0.221.
Then C29G C63A, with 0.23; and C29G C63U, with 0.418.
Then G30A C57U, with 0.272.
Consider C29U U64C, for which the self-cleavage was 0.371.
Then G30A U36A, with 0.196; and C29U U62C, with 0.211; and C29U U62G, with 0.21.
Then C29A G50U, with 0.747.
Then C29A G50A, with 0.735.
On to G30A, for which the self-cleavage was 0.913.
Then G30C, with 0.682; and C29G U43G, with 0.393; and C29G U49A, with 0.521.
Then C29G U49G, with 0.65; and C29U U36A, with 0.132; and C29U G47C, with 0.62.
Then C29U G47A, with 0.598; and C29U C39U, with 0.193.
For the variant C29U C39A, the self-cleavage worked out at 0.16.
Then C29G G50A, with 0.609; and C29G G50U, with 0.535; and G30A G65A, with 0.627.
Then G30A G65C, with 0.353; and C29G U61A, with 0.57; and G30A G41A, with 0.382.
Then G30A G41C, with 0.215; and C29G C33G, with 0.16; and C29G C33A, with 0.212.
Turning to G30A G50C, the self-cleavage was 0.774.
Then G30A G50A, with 0.927; and C29G U69C, with 0.892; and C29G U69A, with 0.757.
Then C29A U64A, with 0.223; and C29A U64G, with 0.292; and C29A U64C, with 0.25.
Then G30C G48C, with 0.642; and G30C G48A, with 0.694; and G30C C45A, with 0.51.
Turning to G30C C45U, the self-cleavage amounted to 0.603.
Then C29G C34G, with 0.294; and C29G A59C, with 0.272.
Regarding C29G A59U, the self-cleavage was determined as 0.203.
Then C29G C39A, with 0.213; and C29U C54G, with 0.219; and C29U C54U, with 0.448.
Take G30C G68U: the self-cleavage was 0.938.
Then G30C G68A, with 0.899; and G30C G68C, with 0.905.
Then C29U G41A, with 0.184; and C29U G41C, with 0.173; and C29A U67A, with 0.668.
With C29A U67C, the self-cleavage amounted to 0.736.
Take C29A U46G: the self-cleavage worked out at 0.759.
Then G30A U67G, with 0.948; and G30A U67A, with 0.901.
For the variant G30A U43G, the self-cleavage worked out at 0.464.
As to G30A U43C, the self-cleavage worked out at 0.704.
Then G30A U43A, with 0.579; and G30A U53G, with 0.356; and G30A U53C, with 0.604.
Then G30A U53A, with 0.541; and C29G C32A, with 0.196; and C29G C32G, with 0.18.
Regarding C29A G30U, the self-cleavage was found to be 0.216.
Then C29A G30A, with 0.264; and C29A G30C, with 0.205; and G30A C39G, with 0.596.
Then G30A C39U, with 0.598; and C29G G65C, with 0.232.
Regarding C29G G65U, the self-cleavage came to 0.182.
In the case of C29G G65A, the self-cleavage came to 0.286.
Regarding G30A U55G, the self-cleavage turned out to be 0.453.
Then G30A U55C, with 0.519; and G30C G41A, with 0.298.
Then G30C A51G, with 0.628.
Then G30C A51C, with 0.614; and G30C U36A, with 0.192; and G30C U36G, with 0.188.
In the case of C29A U44A, the self-cleavage is 0.55.
Then C29G G48C, with 0.698; and C29G G48U, with 0.602; and C29G G48A, with 0.667.
Then G30C G56A, with 0.464; and G30A A40U, with 0.461; and G30A A40G, with 0.754.
Then G30A A40C, with 0.276; and C29U C66U, with 0.242; and C29U C66A, with 0.235.
Regarding C29G G56C, the self-cleavage worked out at 0.225.
Then C29G G56A, with 0.299; and C29G G56U, with 0.292.
As for C29U G68A, the self-cleavage turned out to be 0.586.
Then C29U G68U, with 0.515; and C29G C35U, with 0.307; and C29G C35A, with 0.234.
Then C29G C35G, with 0.301; and G30A G31C, with 0.254.
For the variant C29G U55G, the self-cleavage came out at 0.171.
Then C29G U55C, with 0.253; and C29G U55A, with 0.267; and C29U G37U, with 0.121.
C29U G37A: the self-cleavage was 0.157.
Then C29U G37C, with 0.162; and G30C A59G, with 0.708; and G30C A59C, with 0.306.
Then G30C A59U, with 0.295; and C29G U53C, with 0.193; and C29G U53A, with 0.308.
Then C29G U53G, with 0.389; and G30C U38A, with 0.314; and G30C U38C, with 0.379.
Take G30C U38G: the self-cleavage came to 0.204.
In the case of G30A A51U, the self-cleavage stood at 0.752.
Then G30A A51G, with 0.744; and G30A U62C, with 0.497; and C29U U44C, with 0.311.
C29U U44G: the self-cleavage worked out at 0.3.
Turning to G30C A40G, the self-cleavage was 0.462.
Take G30C A40C: the self-cleavage turned out to be 0.197.
Then G30A C35A, with 0.207; and C29G G58C, with 0.416; and C29G G58U, with 0.558.
In the case of C29A U49G, the self-cleavage is 0.737.
Consider C29A U49C, for which the self-cleavage came to 0.809.
Then C29G A52G, with 0.53; and C29G A52U, with 0.504; and C29A U62A, with 0.409.
Then C29A U62C, with 0.644.
Then G30C G65C, with 0.431; and C29A U43A, with 0.32; and G30A U64C, with 0.795.
With G30A C66G, the self-cleavage worked out at 0.61.
Then G30A C66U, with 0.861; and C29U A51G, with 0.537; and C29U U49G, with 0.514.
Then C29U U49C, with 0.411; and C29U U49A, with 0.542.
Then C29G A60C, with 0.108; and C29G A60G, with 0.337.
On to C29G A60U, for which the self-cleavage amounted to 0.204.
Then G30A C34U, with 0.741; and C29U C57A, with 0.154; and C29U C57U, with 0.227.
C29U C57G: the self-cleavage was found to be 0.177.
Then C29G U64G, with 0.279; and C29G U64C, with 0.369; and C29U C63U, with 0.253.
Then G30A U61A, with 0.418; and C29G G30A, with 0.173; and C29G G30C, with 0.271.
